In the nanobody polyreactivity screen of Harvey et al. (2022):

Test: yeast display, Sf9 membrane polyspecificity reagent, FACS + sequencing; frameworks hold sequencing errors
Outline: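 Using colony PCR, genes from sorted yeast display clones were amplified, then sequenced on MiSeq at 2 × 250 and filtered by CDR length. The clones had been stained with 10% biotinylated, detergent-solubilized Sf9 membrane reagent for 1 hour at 4 °C and sorted by FACS into low and high (top ~1%) gates on anti-HA and streptavidin fluorescence. Polyreactivity labels come from the gate of origin.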
For “QVQLVESGGGLVQAGGSLRLSCAASGFTFWYYAMGWYRQAPGKERELVATITSGDSTKYADSVKGRFTISRDNAKNTVYLQMNSLKPEDTAVYYCAAEKVLPFIGYDYWGQGTQVTVSS”, the “polyreactivity (PSR sort gate)” value was “low polyreactivity”.
In the case of “QVQLVESGGGLVQAGGSLRLSCAASGFTFWYYTMGWYRQAPGKERELVAAITRSGGRTYYADSVKGRFTISRDNAKNTVYLQMNSLKPEDTAVYDCAAVGNLYYTSHWQYDYWGQGTQVTVSS”, the “polyreactivity (PSR sort gate)” value was “high polyreactivity”.
In the case of “QVQLVESGGGLVQAGGSLRLSCAASGFTFYANAMGWYRQAPGKERELVAAISWSGGRTYYADSVKGRFTISRDNAKNTVYLQMNSLKPEDTAVYYCAAKRWTTKNGFYEYPYYYWGQGTQVTVSS”, the “polyreactivity (PSR sort gate)” value was “high polyreactivity”.
In the case of “QVQLVESGGGLVQAGGSLRLSCAASGFTFYAYAMGWYRQAPGKERELVAVISQSGTRTYYADSVKGRFTISRDNAKNTVYLQMNSLKPEDTAVYYCAADTYSPDREYGYWGQGTQVTVSS”, the “polyreactivity (PSR sort gate)” value was “high polyreactivity”.
With “QVQLVESGGGLVQAGGSLRLSCAASGFTFYDYAMGWYRQAPGKERELVAAISDSGGITYYADSVTGRFTISRDNAKNTVYLQMNSLKPEDTAVYYCAADFATPGPEYDYWGQGTQVTVSW” the “polyreactivity (PSR sort gate)” value was “low polyreactivity”.
In the case of “QVQLVESGGGLVQAGGSLRLSCAASGFTFYFYALGWYRQAPGKERELVATITIGGRTNYADSVKGRFTISRDNAKNTVYLQMNSLKPEDTAVYYCAAAYLWISRYSGYDYWGQGTQVTVSS”, the “polyreactivity (PSR sort gate)” value was “high polyreactivity”.
With “QVQLVESGGGLVQAGGSLRLSCAASGFTFYGNAMGWYRQAPGKERDLVAAITGRAGRTYYADSVKGRFTISRDNSKNTVYLQMNSLKPEDTAVYYCAVQVAQSRTFSTYGYWGQGTQVTVSS” the “polyreactivity (PSR sort gate)” value was “high polyreactivity”.
For “QVQLVESGGGLVQAGGSLRLSCAASGFTFYGYAMGWYRQAPGKERELVAAISSSGGRTYYADSVKGRFTISRDNAKNTVYLQMNSLKPEDTAVYYCAADYTSRDYYYWGQGTHVTVSS”, the “polyreactivity (PSR sort gate)” value was “high polyreactivity”.
In the case of “QVQLVESGGGLVQAGGSLRLSCAASGFTFYIYAMGWYGLAAGKERELVAAINFRGGSTYYADSVKGRFTISRDNAKNTVYLQMNSLKPEDTAVKYCAARSRDKYDYWGQGTQVTVSS”, the “polyreactivity (PSR sort gate)” value was “high polyreactivity”.
For “QVQLVESGGGLVQAGGSLRLSCAASGFTFYKNTMGWYRPEPGKERELVAAISSSGSSTYYADSVKGRFRISRDNAKNTVYLLMNSLKPEDTAVYYCAAGRFAYHDDYWGQGTQVTVSS”, the “polyreactivity (PSR sort gate)” value was “high polyreactivity”.
For “QVQLVESGGGLVQAGGSLRLSCAASGFTFYKNTMGWYRQAPGNERELVAAISYRGGTYYADSVKGRFTISRDNAKTTVYLQMNSLKPEDTAVYYCNARYRGKYSSYGFWGHGTQVTVSS”, the “polyreactivity (PSR sort gate)” value was “high polyreactivity”.
For “QVQLVESGGGLVQAGGSLRLSCAASGFTFYKYAMGWYRQAPGKERELVAAISRRGTSTYYADSVKGRFTISRDNAKNTVYLQMNSLKPEDTAVYYCNRDVSLSAFDYWGQGTQVTVSS”, the “polyreactivity (PSR sort gate)” value was “high polyreactivity”.
In the case of “QVQLVESGGGLVQAGGSLRLSCAASGFTFYKYAMGWYRQAPGKERELVAGIRRGGTNYADSVKGRFTISRDNAKNTVYLQMNSLKPEDTAVYYCAADVRPYYSAYRGRYYYWGQGTQVTVSS”, the “polyreactivity (PSR sort gate)” value was “high polyreactivity”.
In the case of “QVQLVESGGGLVQAGGSLRLSCAASGFTFYKYVMGWYRQAPGKERELVAAISYSSGSTYYADSVKGRFTISRDNAKNTVYLQMNSLKPEDTAVYYCAARTYYAPQNMGYWGQGTQVTVSS”, the “polyreactivity (PSR sort gate)” value was “high polyreactivity”.
For “QVQLVESGGGLVQAGGSLRLSCAASGFTFYLNAKGWYRQAPGKERELVAAITGSGGSTYYADSVKGRFTISRDNAKNTVYLQMNSLKPEDTAVYYCAADLYFYVISSGYGFYYWGQGTQVTVSS”, the “polyreactivity (PSR sort gate)” value was “low polyreactivity”.
In the case of “QVQLVESGGGLVQAGGSLRLSCAASGFTFYLNAMGLYRQAPGKERELVAGISWRGGRTYYADSVKGRFTISRDNAKNSVYLQMNSLKAEDTAVYYCAAVTYSFQKTDYYWGQGTQVTVSS”, the “polyreactivity (PSR sort gate)” value was “high polyreactivity”.
In the case of “QVQLVESGGGLVQAGGSLRLSCAASGFTFYLYAMGWYRQAPGKERELVASISSGGRTYYADSVKGRFTISRDNAKNTVYLQMNSLKPEDTAVYYCAVSPYSRRKYEYYYWGQGTQVTVSS”, the “polyreactivity (PSR sort gate)” value was “high polyreactivity”.
